Laboratory results from article PMC5241119, “Structural snapshots of Xer recombination reveal activation by synaptic complex remodeling and DNA bending”.
Numbering of substitutions follows the chain as printed.

Tests used:
[1] = biological target: Helicobacter pylori XerH recombinase, full-length wild type (Helicobacter pylori) (UniProt O25386); experiment: crystal structure; XerH co-crystallised with nicked palindromic 'suicide' difHLP DNA (post-cleavage synaptic complex; two XerH and one DNA in the asymmetric unit, tetramer by crystallographic two-fold); well 0.1 M HEPES pH 7-8, 0.2 M MgCl2, 25-35% PEG 400; 6°C
[2] = biological target: Helicobacter pylori XerH recombinase, full-length wild type (Helicobacter pylori) (UniProt O25386); experiment: crystal structure; full-length wild-type XerH co-crystallised with a 30 bp difH DNA duplex (pre-cleavage synaptic complex: four XerH, two difH); protein:DNA 1.2:1; well 0.2 M NaCl, 20-25% PEG 3350; 6°C
[3] = biological target: T1, XerH (Helicobacter pylori strain 26995 (as …, UniProt O25386 1-362)); experiment: EMSA; 10 mM Mg2+; all complex species summed; EMSA: 25 mM HEPES pH 7.5, 100 mM NaCl, 10 mM MgCl2, 5% glycerol, 1 mM DTT, 1 mM EDTA, 1 h at 30 C, 20 nM DNA, 0-360 nM XerH; SEC complexes prepared as for crystallization (dialysed to 25 mM Na acetate pH 5.5, 200 mM NaCl, 5% glycerol, 1 mM DTT); settings: protein: recombinant; tags: His6-SUMO N-terminal, removed with SenP2; label: 5'-32P; blunt
T1 sequence: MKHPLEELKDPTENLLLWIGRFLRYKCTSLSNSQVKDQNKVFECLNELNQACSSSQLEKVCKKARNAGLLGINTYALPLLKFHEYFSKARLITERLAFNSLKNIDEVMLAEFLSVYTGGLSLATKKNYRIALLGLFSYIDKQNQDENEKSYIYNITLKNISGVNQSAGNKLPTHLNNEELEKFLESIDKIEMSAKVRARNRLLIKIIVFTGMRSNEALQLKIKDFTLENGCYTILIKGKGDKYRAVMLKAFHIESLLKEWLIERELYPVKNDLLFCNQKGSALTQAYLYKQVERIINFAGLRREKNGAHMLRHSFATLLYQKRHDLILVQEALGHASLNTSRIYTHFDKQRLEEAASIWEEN

[4] = biological target: XerH K290S (Helicobacter pylori strain 26995 (as …, UniProt O25386 1-362, K290S)); experiment: EMSA; K290S does not affect difH binding; EMSA: 25 mM HEPES pH 7.5, 100 mM NaCl, 10 mM MgCl2, 5% glycerol, 1 mM DTT, 1 mM EDTA, 1 h at 30 C, 20 nM DNA, 0-360 nM XerH; SEC complexes prepared as for crystallization (dialysed to 25 mM Na acetate pH 5.5, 200 mM NaCl, 5% glycerol, 1 mM DTT); settings: protein: recombinant; tags: His6-SUMO N-terminal, removed with SenP2; label: 5'-32P; blunt
[5] = biological target: T1, XerH; experiment: analytical SEC; EMSA: 25 mM HEPES pH 7.5, 100 mM NaCl, 10 mM MgCl2, 5% glycerol, 1 mM DTT, 1 mM EDTA, 1 h at 30 C, 20 nM DNA, 0-360 nM XerH; SEC complexes prepared as for crystallization (dialysed to 25 mM Na acetate pH 5.5, 200 mM NaCl, 5% glycerol, 1 mM DTT); settings: protein: recombinant, tags: His6-SUMO N-terminal, removed with SenP2, blunt
[6] = biological target: T1, XerH; experiment: analytical SEC; no shift in retention; EMSA: 25 mM HEPES pH 7.5, 100 mM NaCl, 10 mM MgCl2, 5% glycerol, 1 mM DTT, 1 mM EDTA, 1 h at 30 C, 20 nM DNA, 0-360 nM XerH; SEC complexes prepared as for crystallization (dialysed to 25 mM Na acetate pH 5.5, 200 mM NaCl, 5% glycerol, 1 mM DTT); settings: protein: recombinant; tags: His6-SUMO N-terminal, removed with SenP2; blunt, self-complementary, 2 copies of one strand
[7] = biological target: T1, XerH; experiment: X-ray crystallography; 2.1 A; pre-cleavage, pH 5.5, no metal; EMSA: 25 mM HEPES pH 7.5, 100 mM NaCl, 10 mM MgCl2, 5% glycerol, 1 mM DTT, 1 mM EDTA, 1 h at 30 C, 20 nM DNA, 0-360 nM XerH; SEC complexes prepared as for crystallization (dialysed to 25 mM Na acetate pH 5.5, 200 mM NaCl, 5% glycerol, 1 mM DTT); settings: protein: recombinant; tags: His6-SUMO N-terminal, removed with SenP2; blunt ends, terminal G:A mismatch at strand 1 position 1 as printed; two duplexes per complex

Helicobacter pylori XerH recombinase, full-length wild type (from UniProt O25386 1-362) (enzyme)
stoichiometry N [1]: 4 | stoichiometry N [2]: 4

B1: difH 50 bp (dsDNA)
DNA 1: TAAATTCATTTAGTTATGAAAACTGCACTTTTCAAACTTTTAAATCAAAC
DNA 2: GTTTGATTTAAAAGTTTGAAAAGTGCAGTTTTCATAACTAAATGAATTTA
Kd [3]: 0.15 µM | binding result [4]: binds

B2: difHL 50 bp (left arm, right arm replaced by random) (dsDNA)
DNA 1: TAAATTCATTTAGTTATGAAAACTGCACTTAAATCAAACCATTTAAATAA
DNA 2: TTATTTAAATGGTTTGATTTAAGTGCAGTTTTCATAACTAAATGAATTTA
Kd [3]: 0.18 µM

B3: difHR 50 bp (right arm, left arm replaced by random) (dsDNA)
DNA 1: CATATTTTTCCTTTTAAATTCACTGCACTTTTCAAACTTTTAAATCAAAC
DNA 2: GTTTGATTTAAAAGTTTGAAAAGTGCAGTGAATTTAAAAGGAAAAATATG
Kd [3]: 0.23 µM

B4: difH 30 bp (SEC) (dsDNA)
DNA 1: TAGTTATGAAAACTGCACTTTTCAAACTTT
DNA 2: AAAGTTTGAAAAGTGCAGTTTTCATAACTA
binding result [5]: binds

B5: difHLP (left-arm palindrome, 30 bp) (dsDNA)
DNA 1: TAGTTATGAAAACTGCAGTTTTCATAACTA
DNA 2: B5 DNA 1
binding result ([5]; self-complementary, 2 copies of one strand): binds

B6: difHRP (right-arm palindrome, 30 bp) (dsDNA)
DNA 1: AAAGTTTGAAAAGTGCACTTTTCAAACTTT
DNA 2: B6 DNA 1
binding result [6]: no binding

B7: difH 30 bp (pre-cleavage crystal) (dsDNA)
DNA 1: B4 DNA 1 with T1G
DNA 2: B4 DNA 2
binding result [7]: binds
